Experimental data published in patent US20220288202A1, “Use of Calcineurin Inhibitor Free CTLA4-IG + Anti-IL6/IL6R For Long Term Immunosuppression in Solid Organ Transplant Recipients” (Cedars-Sinai Medical Center, priority 2019, published 2022).
“And” between values parts separate entries of the source, which are not always exact repeats. Equal entries are not always repeated. “Also recorded” adds a separate entry of the source.

Assays:
[1] = tested on: highly HLA sensitized kidney transplant recipients; assay: Experience with anti-IL-6/IL-6R+CTLA4-Ig, CNI-free and MMF-free, in human kidney transplant recipients (case courses); type: in vivo
From the text: Four patients were maintained on CNI-free and MMF-free immunosuppression on anti-IL-6R or anti-IL-6+CTLA4-Ig for a prolonged time period (years) after transplant. These patients received two infusions per month as their standard immunosuppression.

[2] = tested on: highly HLA sensitized patients (HLAi kidney transplant); assay: clazakizumab desensitization trial: transplantation, rejection episodes and graft loss; type: in vivo, human; settings: for highly sensitized patients able to receive transplants: after clazakizumab desensitization
Method: (§1) Patients entered into the afore-described clazakizumab desensitization trial (NCT03380962) where 75% were in the 99-100% Panel Reactive Antibody (PRA) range received clazakizumab 25 mg subcutaneously monthly for up to 6 months. If transplanted, they received continued clazakizumab for up to 6 M post-transplant. This group of patients are exceedingly difficult to transplant due to high likelihood of severe antibody mediated rejection and graft loss post-transplant. Antibody levels, pre-post-transplant and Treg cells were monitored at concomitant time points.
(§2) As part of a phase I/II trial of clazakizumab for desensitization, HLA sensitized patients received anti-IL-6, 25 mg SC monthly×6 doses with monitoring of HLA antibody levels and Tregs. Patients were treated pre- and post-transplant with clazakizumab. Transplanted patients received monthly clazakizumab 25 mg subcutaneously starting 5-7 days post-transplant for 12 months. Tregs were determined by flow cytometry as CD4^+, CD25^+, CD127^dim, FoxP3^+ cell populations in CD4^+ cells. Determinations were made at baseline, at transplantation and day 180 post-transplant.

[3] = tested on: Treg cells (CD4+, CD25+, CD127dim, FoxP3+); assay: Tregs by flow cytometry in clazakizumab-treated HLA sensitized patients; type: in vivo, human; settings: for Mean Treg value: baseline 3.2+1.09%, in CD4+ cells
Method: as §2

[4] = tested on: patients/subjects taking clazakizumab; settings: human, in vivo, cited from earlier work
[5] = tested on: HLA antibodies (class I and class II); assay: clazakizumab desensitization trial (NCT03380962): HLA antibody levels pre- and post-clazakizumab; type: in vivo, human
Method: as §1, §2

[6] = in vivo; cited from earlier work
[7] = tested on: monkeys; settings: monkey, in vivo; cited from earlier work
[8] = tested on: donor specific antibodies; assay: clazakizumab desensitization trial: donor specific antibodies pre- and post-transplant; type: in vivo, human
Method: as §1
Transplant patients who were treated as described in the previous example were also monitored to assess the effect of clazakizumab on donor specific antibodies. Particularly, levels of donor specific antibodies were monitored in transplant patient samples pre- and post-transplant.

[9] = post-transplant on clazakizumab

## C=CC[C@@H]1/C=C(\C)C[C@H](C)C[C@H](OC)[C@H]2O[C@@](O)(C(=O)C(=O)N3CCCC[C@H]3C(=O)O[C@H](/C(C)=C/[C@@H]3CC[C@@H](O)[C@H](OC)C3)[C@H](C)[C@@H](O)CC1=O)[C@H](C)C[C@@H]2OC [tacrolimus]
[1]; patient, three years after anti-IL-6R start, tapered off
  biopsy toxicity finding: toxicity seen on a biopsy

## tocilizumab
[1]; person on CTLA4-Ig + tocilizumab monthly
  duration of stable course with declining SCr: over 1.5 years
[1]; person, chronic ABMR, on CTLA4-Ig, converted from CELLCEPT to tocilizumab monthly
  SCr course: stable with declining SCr

B1: clazakizumab (antibody, chains of the INN, looked up, V domains shown)
VH: EVQLVESGGGLVQPGGSLRLSCAASGFSLSNYYVTWVRQAPGKGLEWVGIIYGSDETAYATSAIGRFTISRDNSKNTLYLQMNSLRAEDTAVYYCARDDSSDWDAKFNLWGQGTLVTVSS
VL: AIQMTQSPSSLSASVGDRVTITCQASQSINNELSWYQQKPGKAPKLLIYRASTLASGVPSRFSGSGSGTDFTLTISSLQPDDFATYYCQQGYSLRNIDNAFGGGTKVEIK
notes: Genetically engineered humanized anti-IL-6 mAb
[2]
  highly sensitized patients able to receive transplants: all of these patients and 9/10
[2]; listed as claza
  highly sensitized patients able to receive transplants: 10 patients
[2]; [9]
  grafts lost due to rejection: no grafts were lost; also recorded: no graft loss
  transplant patients with rejection episodes: Two of the ten and 2 of 10
[3]; at transplant, p=NS
  Mean Treg value: 3.5+1.75%
[3]; day 180 post-transplant, still on anti-IL-6 therapy
  change in Treg cells: significant increase; also recorded: dramatic increase
[3]; day 180 post-transplant, p=0.008
  Mean Treg value: 12.6+9.3%
[4]; iv
  infusion reactions: no infusion reactions
[4]; sc
  severity of injection site reactions: mild or moderate
[4]
  demyelinating disorder events: rarely reported
  malignancies: no imbalance of malignancies
  outcome of pregnancies in subjects taking clazakizumab: one spontaneous abortion
  reactivation of viral and other serious infections (e.g. EBV or TB): rarely reported
[5]; post claza, pre-desensitization 13062±3123, p=0.05, nine transplanted patients
  Mean MFI for HLA cl: 8585±4597 MFI
[5]; post claza, pre-desensitization 13519±2966, p=0.03, nine transplanted patients
  Mean MFI for HLA cll: 8344±4836 MFI
[5]; pre- vs post-clazakizumab 25 mg SC monthly
  impact on HLA antibodies (class I and class II): significant reductions; also recorded: reduced
[6]
  elimination half-life (t1/2): about 30 days
[7]
  monkeys with retained placentas in which excessive uterine hemorrhage led to moribund status: 3 of the 5
[8]; at transplant
  donor-specific antibodies present prior to transplant: significantly reduced
[8]; by day 180 post-transplant
  DSA status of DSA+ patients: negative
[8]; post-transplant
  donor-specific antibodies present prior to transplant: disappeared
[8]; up to 3 months post-transplant
  pathogenic antibodies: significant reduction
